US20260035452A1 (THE UNIVERSITY OF BIRMINGHAM, priority 2022, published 2026)

Columns and labels:
dorsal air pouch of mice = assay: In vivo air pouch model; settings: 1 μg/mice into air pouch, 24 h
Experimental: FIG. 3: Mice were treated with IL-17 vehicle (Ctrl), IL-17 (1 μg/mice) alone (IL-17) or peptide (FM-0410) (1 μg/mice) and thereafter total cell number from pouches inflammatory exudates was evaluated at 24 h. Data were expressed as millions of cells for pouch and presented as means±S.D. of n=7 mice per group. Statistical analysis was conducted by one-way ANOVA followed by Bonferroni's for multiple comparisons. ^##P≤0.01, ^###P≤0.005 vs Ctrl group; *P≤0.05 vs IL-17 group.
FIG. 4: Inflammatory supernatants obtained from the pouch cavities were assayed using a Proteome Profiler Cytokine Array for Ctrl, IL-17 and FM-0410 experimental group. Densitometric analysis is presented as heatmap. Data (expressed as INT/mm2) are presented as means±S.D. of positive spots of three independent experiments run each with n=7 mice per group.
FIG. 5: Mice were treated with IL-17 vehicle (Ctrl), IL-17 (1 μg/mice), or peptide (FM-0410) (1 μg/mice) and inflammatory fluids were assayed by Elisa for IL-6. Data were expressed as pg/ml and presented as means±S.D. of n=7 mice per group. Statistical analysis was conducted by one-way ANOVA followed by Bonferroni's for multiple comparisons. ^##P≤0.01 vs CTRL group. […]
Specifically, dorsal air pouches were prepared by injection of 2.5 ml of air on day 0 and day 3 as previously described (Maione et al., 2009). […] Inflammatory exudates were collected and measured to evaluate the level of inflammatory cyto-chemokines. Cell number was determined by TC20 automated cell counter (Bio-Rad, Milan, Italy) using Bio-Rad's TC20 automated cell counter uses disposable slides, TC20 trypan blue dye (0.4% trypan blue dye w/v in 0.81% sodium chloride and 0.06% potassium phosphate dibasic solution) and a CCD camera to count cells based on the analyses of capture images (Maione et al., 2018).
Methods: The levels of IL-6 in the cellular and air pouch inflammatory supernatants at 24 h were measured using commercially available enzyme-linked immunosorbent assay kit (ELISA kit, R&D System, Milan, Italy) according to the manufacturer instructions. […]

[1] = system: hPBMC on cytokine-stimulated HDBEC monolayers; assay: Human PBMC static adhesion / transendothelial migration assay; assay type: cell-based; settings: co-treatment plus TNF-α
Experimental: FIG. 10: Human dermal blood endothelial cells (HDBEC) were treated with: IL-17 vehicle (Ctrl), IL-17 or FM-0410 (100 ng/ml), alone or in combination with TNF-α (100 U/ml) for 24 h. Cells were washed, gated in their totality and singlet before the identification of IL-17Rs (RA and RC) (A, B), ICAM (C) and VCAM (D) expression. Histogram values (expressed as MIF) indicate the total positive cells (A-D). In (E) are shown phase-contrast micrographs of confluent monolayers of untreated or treated (as reported before) HDBEC. Total adhesion (expressed as INT/mm^2, F) and % of transmigration (G) are calculated with Image Pro programme (DataCell, Finchampstead). Inflammatory supernatants from all experimental conditions were assayed by Elisa for IL-6 (H) expressed in pg/ml. Data were presented as means±S.D. of n=3 healthy donors. […]
Human PBMC transendothelial migration assay: Prior to beginning the assay, HDBEC monolayers were washed with 37° C. medium 199 (Thermo Fisher Scientific) supplemented with 0.15% w/v BSA (MilliporeSigma) to remove any residual cytokines. hPBMC (1×10^6) were co-cultured with cytokine-stimulated HDBEC monolayers at 37° C. for 20 min. […] Total hPBMC adhesion and mean percentage transmigration were calculated for each well.

B1: IL-17: recombinant mouse IL-17 purchased from R&D System; full-length cytokine used as comparator and stimulus (protein, UniProt Q62386 26-158, looked up)
Interleukin-17A: AAIIPQSSACPNTEAKDFLQNVKVNLKVFNSLGAKVSSRRPSDYLNRSTSPWTLHRNEDPDRYPSVIWEAQCRHQRCVNAEGKLDHHMNSVLIQQEILVLKREPESCPFTFRVEKMLVGVGCTCVASIVRQAA
cyto-chemokines profile of pouch fluid (Proteome Profiler Cytokine Array) (dorsal air pouch of mice): significant increase of cyto-chemokines profile compared to ctrl group | level of IL-6 in pouch fluids (dorsal air pouch of mice): increased level of IL-6 compared to control group | number of inflammatory leukocytes (total cell number from pouch exudates) (dorsal air pouch of mice): significant differences in the number of inflammatory leukocytes compared to control group | total number of adhered hPBMC [1]: significant increase | transmigrated hPBMC [1]: significant increase
